In data set [1] the test system is cKIT phosphorylation in Mo7e and GIST T-1 cells. Put plainly: Western blot for agonistic properties (15 minutes treatment). The format is cell-based, human. Particulars: 5 ug/ml. The procedure: To evaluate the potential agonistic properties of cKIT ADCs, 2×10^6 of GIST T-1 (kindly provided by Dr. Takahiro Taguchi, Kochi U., Japan) or Mo7e (DSMZ, ACC-104) cells were serum starved overnight at 37° C. with 5% CO2 (DMEM for GIST T-1 and RPMI for Mo7e supplemented with 0.1% FBS) in 6-well plate (NUNC catalog #14067). […] One well was designated as untreated (UT). Cells were harvested in 1 ml PBS. […] Lysates were then spun down for 40 mins at 12,000 rpm at 4° C. 20 μg of each sample was boiled for 10 min at 75° C. and loaded on a 12-well NuPAGEO 4-12% Bis-Tris gel (Life Technologies, NP0322BOX, Carlsbad, Calif.). After protein transfer to membrane blots, membranes were blocked in TBST-5% milk at room temperature for 1 hour and then probed with primary antibodies overnight at 4° C. Blots were washed in TBST (4×5 mins) on the next day. Blots were incubated in the secondary antibody (goat-anti rabbit-HRP 1:30,000, Santa Cruz) for 1 hr at room temperature. Blots were washed in TBST (4×5 mins) and developed. […]
On the technique in general: Immunoblotting shows a protein as a band on a membrane.

Data set [2] concerns the target T1, cKit receptor on normal human CD34+ bone marrow cells (Homo sapiens, UniProt P10721).
T1 construct: host or cells: normal human CD34+ bone marrow cells (primary)
Put plainly: cKit receptor levels on bone marrow cells by flow cytometry. The data set is classed as cell-based. The note with it: 10 μg/ml. The procedure:
In another internalization experiment, the impact of NEG085 on cKit receptor levels was evaluated on human bone marrow cells. Normal human CD34+ bone marrow cells (All Cells, Cat #ABM022F, Emeryville, Calif.) were thawed and washed with 10 mL of StemPro0-34 SFM medium (Gibco, Life Technologies, Carlsbad, Calif.). Cells were resuspended in 1.25 mL of StemPro-34 SFM medium at 4×10^5 cells/mL and split equally into two tubes. […] 100 μL of cell suspension was collected at each timepoint (0, 15, 30, 60, 120, and 240 min) from each condition, and placed into an ice cold collection tube to cease internalization. Cells were washed with 3 mL of ice-cold FBS stain buffer and resuspended in 100 μL of FBS stain buffer. […] of 104D2-BV421 (mouse anti-human IgG1 k, Biolegend) was added to each tube and incubated on ice for 1 hour. Following another wash with FBS stain buffer, total cKit receptors were measured by flow cytometry by assessing the mean fluorescence intensity of BV421 on a FACS Canto II® (BD Biosciences, San Jose, Calif.).
A general note: Flow cytometry measures light scatter and fluorescence of single cells or particles in a stream.

For data set [3], the system named is primary human mast cells. Put plainly: Mast cell apoptosis (Caspase-Glo 3/7). The data set is classed as cell-based. Particulars: 0.05-100 nM, 1.6 nM rhSCF, 48 h. As for the experimental part:
Primary human mast cells were cultured from peripheral human blood according to the methods described by Saito et al., Nature Protocols 2006; 1(4):2178-2183. […] Following 30 min incubation at RT, luminescence was recorded on the BioTek Synergy plate reader (BioTek, Winooski, Vt.).

Data set [4] deals with Mo7e cells. As to the kind of experiment: Mo7e proliferation assay with GM-CSF (SCF-independent). The format is cell-based, human. The note with it: 10 ng/ml GM-CSF, 5 days. The procedure: To evaluate the potential antagonistic properties of the naked antibodies and the ability of the antibody drug conjugates (ADCs) to inhibit the proliferation of a cKIT-expressing cell line, MO7e (DSMZ, Catalog # ACC-104, Braunschweig, Del.) were grown in the presence or absence of cKIT ligand, Stem Cell Factor (SCF), for survival. MO7e cells were grown in either 10 ng/ml human granulocyte-macrophage colony-stimulating factor GM-CSF (R&D Systems Cat#215-GM, Minneapolis, Minn.) or 10 ng/ml human Stem Cell Factor SCF (R&D Systems Cat#255-SC) prior to seeding in 96 well plates (Costar Cat #3904, Corning, Tewksbury, Mass.) at 5000 cells/well in 100 μl dilution medium. A duplicate plate was generated for a day 0 measurement and all plates were incubated in a tissue culture incubator at 37° C. with 5% CO2 overnight. […] Assay plates were shaken gently for 20 min and the resulting luminescence intensity was measured using a Perkin Elmer 1450 Microbeta TriLux® plate reader (Perkin Elmer, Waltham, Mass.). […] Following this incubation period, relative cell viability was determined via the addition of Cell titer Glo reagent as described above. The effect of the ADCs on cell proliferation was calculated using the average of the duplicates as follows: (% Inhibition=(ADC or Ab treated)/(untreated)*100) The % inhibition data was fitted to a 4-parameter logistic equation and IC50 values were determined.

T1 sequence (P10721 26-976): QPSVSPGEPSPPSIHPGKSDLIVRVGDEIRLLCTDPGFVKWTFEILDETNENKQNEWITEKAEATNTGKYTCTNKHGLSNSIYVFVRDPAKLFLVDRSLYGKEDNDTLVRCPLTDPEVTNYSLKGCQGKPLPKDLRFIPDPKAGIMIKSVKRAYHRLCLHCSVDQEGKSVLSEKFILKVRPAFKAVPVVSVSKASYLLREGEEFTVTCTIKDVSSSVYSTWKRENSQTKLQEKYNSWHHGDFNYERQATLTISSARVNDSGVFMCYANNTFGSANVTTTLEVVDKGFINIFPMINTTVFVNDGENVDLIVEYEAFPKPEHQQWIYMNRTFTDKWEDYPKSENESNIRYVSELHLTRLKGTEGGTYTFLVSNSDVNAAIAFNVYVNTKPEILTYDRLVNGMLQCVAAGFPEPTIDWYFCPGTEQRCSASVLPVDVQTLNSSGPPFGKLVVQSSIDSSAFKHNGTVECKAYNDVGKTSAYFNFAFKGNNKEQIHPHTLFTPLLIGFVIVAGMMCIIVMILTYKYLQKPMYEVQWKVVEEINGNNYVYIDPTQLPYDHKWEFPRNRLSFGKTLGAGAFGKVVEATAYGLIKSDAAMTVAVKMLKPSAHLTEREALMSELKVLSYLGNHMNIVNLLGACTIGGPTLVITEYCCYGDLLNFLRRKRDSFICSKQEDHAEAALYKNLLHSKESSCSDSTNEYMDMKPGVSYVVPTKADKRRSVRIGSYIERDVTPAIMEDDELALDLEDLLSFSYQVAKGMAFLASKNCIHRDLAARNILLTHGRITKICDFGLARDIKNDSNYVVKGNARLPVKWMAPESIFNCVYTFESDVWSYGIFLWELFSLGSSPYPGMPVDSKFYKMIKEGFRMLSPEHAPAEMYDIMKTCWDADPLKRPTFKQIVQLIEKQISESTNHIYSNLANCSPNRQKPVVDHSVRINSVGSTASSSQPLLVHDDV

B1: NEG085: anti-cKIT antibody of Table 1; VH SEQ ID NO 82, VL SEQ ID NO 91; derived from 9P3 (antibody, V domains shown)
VH: EVQLVESGGGLVQPGGSLRLSCAASGFAFSGYYMAWVRQAPGKGLEWVANINYPGSSTYYLDSVKGRFTISRDNAKNSLYLQMNSLRAEDTAVYYCARGDYYGTTYWYFDVWGQGTTVTVSS
VL: DIQMTQSPSSLSASVGDRVTITCRASQSISSYLNWYQQKPGKAPKLLIYYTSRLQSGVPSRFSGSGSGTDFTLTISSLQPEDFATYYCQQGRRLWSFGGGTKVEIK
Turning to B1, the “downstream signaling (phospho ERK, phospho AKT)” value in data set [1] is “downstream signaling pathways are not affected”. In data set [1] (absence of ligand (SCF)), the “phosphorylation of cKIT” value is on record as “can mediate phosphorylation of cKIT in the absence of ligand (SCF)”. Besides, the “time of the bulk of the internalization” value in data set [2] amounted to 15 min. Moreover, the cKIT internalization entry in data set [2] (0-240 min) is on record as “rapidly internalized”. In data set [3], the mast cell apoptosis result is listed as “do not lead to apoptosis of human primary mast cells ex vivo”. For the same molecule, the “effect on cell proliferation” value in data set [4] is recorded as “no detrimental effect on cell proliferation”.

Source of the values: patent US10117953B2, “Antibody drug conjugates” (Novartis AG, priority 2013, dated 2018).
